Laboratory results reported in article PMC10724393, “FOXA2 Suppression by TRIM36 Exerts Anti‐Tumor Role in Colorectal Cancer Via Inducing NRF2/GPX4‐Regulated Ferroptosis” (Advanced Science, 2023).
Values belong to the binder of their own block, whether it stands above or below them.

How the values were obtained:
[1] = target: T1, His-tagged TRIM36 (human, UniProt Q9NQ86 1-728); test: pull-down; GST fusion on glutathione-Sepharose 4B beads, incubated with purified His-tagged partner for 4 h; eluate blotted with anti-His; GST alone as control; conditions: both partners purified
T1 construct: TRIM36, human; construct and limits of the His-tagged protein are not described; also called His-TRIM36; source: purified
T1 sequence (looked up): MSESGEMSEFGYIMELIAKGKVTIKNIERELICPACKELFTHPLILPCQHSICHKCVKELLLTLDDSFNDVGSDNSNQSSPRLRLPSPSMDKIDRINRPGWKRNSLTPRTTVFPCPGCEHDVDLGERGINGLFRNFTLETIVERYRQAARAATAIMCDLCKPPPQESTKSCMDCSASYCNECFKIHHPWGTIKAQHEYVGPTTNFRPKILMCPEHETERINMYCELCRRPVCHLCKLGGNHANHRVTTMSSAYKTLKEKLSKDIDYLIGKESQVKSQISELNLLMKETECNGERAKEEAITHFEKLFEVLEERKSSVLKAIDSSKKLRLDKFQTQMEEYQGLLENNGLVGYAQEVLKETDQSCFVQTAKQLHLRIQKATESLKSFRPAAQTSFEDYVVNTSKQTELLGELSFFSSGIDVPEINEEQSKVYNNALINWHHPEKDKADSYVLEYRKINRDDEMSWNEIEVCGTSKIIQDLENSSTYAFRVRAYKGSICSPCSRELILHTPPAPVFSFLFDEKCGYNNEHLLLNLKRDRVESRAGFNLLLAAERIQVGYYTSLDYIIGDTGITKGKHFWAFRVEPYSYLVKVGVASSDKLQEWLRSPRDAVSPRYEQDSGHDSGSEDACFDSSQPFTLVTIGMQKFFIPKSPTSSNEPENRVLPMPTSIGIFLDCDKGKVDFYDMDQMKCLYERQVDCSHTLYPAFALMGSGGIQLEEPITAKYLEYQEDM

[2] = target: T2, GST-TRIM36 (human, UniProt Q9NQ86 1-728); test: as above; conditions: both partners purified
T2 construct: TRIM36, human cDNA, full length, cloned into pGEX-4T-1-GST; also called purified GST-TRIM36
T2 sequence (looked up): T1 sequence (looked up)

binding result [1]: binds
B1: GST-FOXA2 (natural protein, human, UniProt Q9Y261 1-457, looked up)
chain: MLGAVKMEGHEPSDWSSYYAEPEGYSSVSNMNAGLGMNGMNTYMSMSAAAMGSGSGNMSAGSMNMSSYVGAGMSPSLAGMSPGAGAMAGMGGSAGAAGVAGMGPHLSPSLSPLGGQAAGAMGGLAPYANMNSMSPMYGQAGLSRARDPKTYRRSYTHAKPPYSYISLITMAIQQSPNKMLTLSEIYQWIMDLFPFYRQNQQRWQNSIRHSLSFNDCFLKVPRSPDKPGKGSFWTLHPDSGNMFENGCYLRRQKRFKCEKQLALKEAAGAAGSGKKAAAGAQASQAQLGEAAGPASETPAGTESPHSSASPCQEHKRGGLGELKGTPAAALSPPEPAPSPGQQQQAAAHLLGPPHHPGLPPEAHLKPEHHYAFNHPFSINNLMSSEQQHHHSHHHHQPHKMDLKAYEQVMHYPGYGSPMPGSLAMGPVTNKTGLDASPLAADTSYYQGVYSRPIMNSS
notes: FOXA2, human cDNA, full length, cloned into pGEX-4T-1-GST; also called purified GST-FOXA2

binding result [2]: binds
B2: His-tagged FOXA2 (natural protein, human, UniProt Q9Y261 1-457, looked up)
chain: B1 chain
notes: FOXA2, human; construct and limits of the His-tagged protein are not described; also called His-FOXA2; source: purified
